# Test: yeast display, Sf9 membrane polyspecificity reagent, FACS + sequencing; frameworks hold sequencing errors
# How it was run: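 A nanobody's polyreactivity label depends on the gate it was sorted from. Yeast display cells were stained with 10% biotinylated, detergent-solubilized Sf9 membrane reagent for 1 hour at 4 °C, enriched on streptavidin microbeads and sorted by FACS. The low and high (top ~1%) gates were set on anti-HA fluorescence for expression and streptavidin fluorescence for reagent binding.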
row,Sequence,polyreactivity (PSR sort gate)
1,QVQLVESGGGLVQAGGSLRLSCAASGFIIFQYAMGLYRQAPGKERELVAAISGSGVTTYYADSVKGRFTISRDNAKNNVYLQMNSLKPEDTAVYYCNAALSWKYDWGQGTQVTVSS,low polyreactivity
2,QVQLVESGGGLVQAGGSLRLSCAASGFIINGNDMGWYRQAPGKERELVAAISSSGGSTYYADSVKGRFTISRDNAKNTVYLQMNSRTPEDSAVYYCARRGKQVSGRYYYWGQGTQVSVSS,high polyreactivity
3,QVQLVESGGGLVQAGGSLRLSCAASGFIIPDYAMGWYRQAPVKERELVAAITSSGGRTYYADSVKVRFTISRDNAKNTVYLQMNSLIPEDTAVYYCAARTNSPRGYGSDYWGQGTQVTVSS,high polyreactivity
4,QVQLVESGGGLVQAGGSLRLSCAASGFIISGYAMGWYRQAPGKERELVAAISWSGGRTYYADSVKGRFTISRDNAKNTVYLQMKSLKPEDTAVYYFAADGYYRDWYGYGYWGLGTQVTVSS,high polyreactivity
5,QVQLVESGGGLVQAGGSLRLSCAASGFIISRNAMGWYRQAPGKERELVAAIRTRTGSTYYADSVKGRFTISRDNAKNTVYLQMNSLKPEDTAVYYCNAYPYVNGRYGSWGQGTQVTVSS,high polyreactivity
6,QVQLVESGGGLVQAGGSLRLSCAASGFIISYYAMGWYRQAPGKDRELVAAISWRGGSTYYADSVKGRFTISRDNAKNTVYLQMNSLKPEDTAVYYCAADFLYGAEGNDYWGQGTQVTVSS,high polyreactivity
7,QVQLVESGGGLVQAGGSLRLSCAASGFIISYYAMGWYRQAPGKERELVATINFSGAGTSYADSVKGRFTISRDNAKNTVYLQMNSLKPEDTAVYYCAARTNSPRGYGSDYWGQGTQVTVSS,high polyreactivity
8,QVQLVESGGGLVQAGGSLRLSCAASGFIITSYAMGWYRQAPGKERELVATISSSGGTTYYADSVKGRFTISRDTAKNTVYLQMNSLKPEDTAVYYCAKDAFGWGRVYYYRSGYWGQGTQVTVSS,high polyreactivity
9,QVQLVESGGGLVQAGGSLRLSCAASGFIIYLYAMGWSRQAPGKERELLAAISRGGGTTYYADSVKGRFTISRDYAQNTVYLQMNSLKPEDTAVYYCAAETEYYSYRFDYWGQGTQVSVSS,high polyreactivity
10,QVQLVESGGGLVQAGGSLRLSCAASGFIIYSYAMGWYRQAPGKERELVAGITSDGRTYYADSVKGRFTISRDNAKNTVYLQMNSLKPEDTAVYYCAARYYLFYRVSPYYYWGQGTQVTVSS,low polyreactivity
11,QVQLVESGGGLVQAGGSLRLSCAASGFILGRYAMGWYRQAPGKERELVAAISIGGRTNYADSVKGRFTISRDNAKITVYFQMNSLKPEDTAVYYCATSFAVLLSQVDYWGQGTQVTVSS,low polyreactivity
12,QVQLVESGGGLVQAGGSLRLSCAASGFILKDNAMGWYRQAPGKERELVAAISSGGGTYYADSVKGRFTISRDNAKNTVSLKMNSLKPEDTAVYYCNADDLYSLNDSSEDYWGQGTQVTVSS,high polyreactivity
13,QVQLVESGGGLVQAGGSLRLSCAASGFILKPNAMGWYRQAPGKERELVAAISWSSGSTYYADSVKGRFTISRDNAKNTVYLQMNSLKPEDTAVYYCAKDLTQIYYGDDYWGQGTQVTVSS,low polyreactivity
14,QVQLVESGGGLVQAGGSLRLSCAASGFILPYYAMGWYRQAPGKERELVAAISDTGRTNYADSVKGRFTISRDNAKYTVYLQMNSLKPEDTAVYYCAARYYSPRYWFRYDSWGQCTQVTVSS,high polyreactivity
15,QVQLVESGGGLVQAGGSLRLSCAASGFILRGYAMGWYIQAPGKERELVDVITGRGDRTYYADSVKGRFTISRDNAKNTVYLQMNSLKPEETAVYYCAARAQPGGSSAIKMYYWGQGTQVTVSS,high polyreactivity
16,QVQLVESGGGLVQAGGSLRLSCAASGFILRKYAMGWYRQAPGKERELVAAINGRGGTYYADSVKGRFTISRDNAKNTVYLQMNSLKPEDTAVYYCAAVEWYGYYTYTIDAYDYWGQGTQVTVSS,high polyreactivity
17,QVQLVESGGGLVQAGGSLRLSCAASGFILRNNAMGWSRQAPGKEREFVAAISSGTRTNYADSVKGRFTISSDNAKNTVYLQMNSLKPEDTAVYYCDAYPTRYYVGYDYWGQGTQVTVSS,high polyreactivity
18,QVQLVESGGGLVQAGGSLRLSCAASGFILRYYAMGWYRQPPGKERELVAAISWSGGSTYYADSVMGRFTISRDNAKNTVYLQMNSLKPEDTAVYYCAADRYAILFYAEDYWGQGTQVTVSS,low polyreactivity
19,QVQLVESGGGLVQAGGSLRLSCAASGFILSFYTMGWYRQEPGKERELVAVISSRGGRTYYADSVKGRFTISRDNAKNTVYLQMNSLKPEDTAVYYCNKRYYFPKPFDYWGQGTQVTVSS,high polyreactivity
20,QVQLVESGGGLVQAGGSLRLSCAASGFILSPNTMGWYRLAPGKERELVAAISSDVSTYADSVKGRFTISRDNAKNTVYLQMYSLKPEDTAVYYCNADDFGYASYESWGQGTQVTVSS,low polyreactivity
21,QVQLVESGGGLVQAGGSLRLSCAASGFILTSYAMGWNRQAPGKERELVAAISSRGGRTYYADSVKGRFTISRDNAKNTVYLQMNSLKPEDTAVYYCNAVVYVVGDFDYWGQGTQVTVSS,high polyreactivity
22,QVQLVESGGGLVQAGGSLRLSCAASGFILYFNAMGWYSQAPGKERELVAAITSDGGSTYYADSVKGRFTISRDNAKNTVYLQMNSLKPEDTAVYYCAADASTWYTEEYWGQGTQVTVSS,low polyreactivity
23,QVQLVESGGGLVQAGGSLRLSCAASGFILYYYVMGWYRQAPGKERELVAAISTSGTSTYYADSVKGRFTISRDNAKNTVYLQMNSLKPEDTAVYYCAAEKDSSDIMEYWGQGTQVTVSS,high polyreactivity
24,QVQLVESGGGLVQAGGSLRLSCAASGFISAYYAMGWYRQAPGKEMELVAAISWNGGRTFYADSVKGRFTISRDNAKNTVYLQMNSLKPEDTAVYYCAADGRLRGYGYWGQGTQVTVSS,high polyreactivity
25,QVQLVESGGGLVQAGGSLRLSCAASGFISAYYAMGWYRQAPGKERELVAAISWNGGRTFYADSVKGRFTISRDNAKNTVYLQMNSLKPEDTAVYYCAADGRLRGYGYWGQGTQVTVSS,high polyreactivity
26,QVQLVESGGGLVQAGGSLRLSCAASGFISFAYAMAWYRQAPGKERELVAGISRSGDSTYYADSVKGRFTISRDNAKNTVYLQMNSLKPEDTAVYYCAARQVVWFDYTTAQVGSYKVNYWGQGTQVTVSS,low polyreactivity
27,QVQLVESGGGLVQAGGSLRLSCAASGFISFDNAMGWYRQAPGKERELVAAIRSGGSTNYADSVKGRFTISRDNAKNSVYLQMNSLKPEDTAVYYCAALDQYGYYQKYYYWGQGTQVTVSS,low polyreactivity
28,QVQLVESGGGLVQAGGSLRLSCAASGFISLRNTMGWYRQAPGKERELVAAINWSGGSTYYADSVKGRFTISRDNAKNTVYLQMNSLKPEDTAVYYCAKGPWPPIYRLFPGYAKFGYWGQGTQVTVSS,low polyreactivity
29,QVQLVESGGGLVQAGGSLRLSCAASGFISPPYAMGWYRQAPGKERELVAAIRSSGGSTYYADSVKGRFTISRDNAKNTVYLQMNSLIPEDTAVYYCNADWIYISSYGWYSYDYWGQGTQVTVSS,high polyreactivity
30,QVQLVESGGGLVQAGGSLRLSCAASGFISPSNAMGWYRQAPGKERELVAAIRSSDGSTYYADSVKGRFTISRDNAKNTVYLQMNSLKPEDTAVYYCAAGGSYYRDDYWGQGTQVTVSS,low polyreactivity

# — the nanobody polyreactivity screen of Harvey et al. (2022)
